Measurements: the Human Domainome abundance scans (Beltran et al. 2025)
± gives the uncertainty stated by the source.

B1: POU domain, class 5, transcription factor 1, residues 134 to 212; numbered along this chain, Q01860 (parent)
chain: EESQDIKALQKELEQFAKLLKQKRITLGYTQADVGLTLGVLFGKVFSQTTICRFEALQLSFKNMCKLRPLLQKWVEEAD

Variants of: B1
Test: abundance fitness (aPCA) (normalised: wild type 0, dead -1); higher = more abundant; growth selection in yeast, the domain comes from the species named
Conditions: Homo sapiens

Variant | abundance fitness
EESQDIKALQKELEQFAKLLKQKRITLGYTQADVGLTLGVLFGKVFSQTTICRFEALQLSFKNMQKLRPLLQKWVEEAD | 0.074 ± 0.13
EESQDIKALQKELEQFAKLLKQKRITLGYTQADVGLTLGVLFGKVFSQTTICRFEALQLSFKNMAKLRPLLQKWVEEAD | -0.381 ± 0.13
EESQDIKALQKELEQFAKLLKQKRITLGYTQADVGLTLGVLFGKVFSQTTICRFEALQLSFKNMLKLRPLLQKWVEEAD | 0.14 ± 0.077
EESQDIKALQKELEQFAKLLKQKRITLGYTQADVGLTLGVLFGKVFSQTTICRFEALQLSFKNMWKLRPLLQKWVEEAD | -0.289 ± 0.12
EESQDIKALQKELEQFAKLLKQKRITLGYTQADVGLTLGVLFGKVFSQTTICRFEALQLSFKNMVKLRPLLQKWVEEAD | -0.178 ± 0.097
EESQDIKALQKELEQFAKLLKQKRITLGYTQADVGLTLGVLFGKVFSQTTICRFEALQLSFKNMNKLRPLLQKWVEEAD | -0.343 ± 0.29
EESQDIKALQKELEQFAKLLKQKRITLGYTQADVGLTLGVLFGKVFSQTTICRFEALQLSFKNMIKLRPLLQKWVEEAD | 0.246 ± 0.2
EESQDIKALQKELEQFAKLLKQKRITLGYTQADVGLTLGVLFGKVFSQTTICRFEALQLSFKNMGKLRPLLQKWVEEAD | -0.691 ± 0.12
EESQDIKALQKELEQFAKLLKQKRITLGYTQADVGLTLGVLFGKVFSQTTICRFEALQLSFKNMMKLRPLLQKWVEEAD | -0.04 ± 0.14
EESQDIKALQKELEQFAKLLKQKRITLGYTQADVGLTLGVLFGKVFSQTTICRFEALQLSFKNMKKLRPLLQKWVEEAD | -0.271 ± 0.22
EESQDIKALQKELEQFAKLLKQKRITLGYTQADVGLTLGVLFGKVFSQTTICRFEALQLSFKNMTKLRPLLQKWVEEAD | -0.403 ± 0.23
EESQDIKALQKELEQFAKLLKQKRITLGYTQADVGLTLGVLFGKVFSQTTICRFEALQLSFKNMYKLRPLLQKWVEEAD | -0.449 ± 0.32
EESQDIKALQKELEQFAKLLKQKRITLGYTQADVGLTLGVLFGKVFSQTTICRFEALQLSFKNMSKLRPLLQKWVEEAD | -0.393 ± 0.15
EESQDIKALQKELEQFAKLLKQKRITLGYTQADVGLTLGVLFGKVFSQTTICRFEALQLSFKNMDKLRPLLQKWVEEAD | 0.155 ± 0.16
EESQDIKALQKELEQFAKLLKQKRITLGYTQADVGLTLGVLFGKVFSQTTICRFEALQLSFKNMRKLRPLLQKWVEEAD | -0.18 ± 0.073
EESQDIKALQKELEQFAKLLKQKRITLGYTQADVGLTLGVLFGKVFSQTTICRFEALQLSFKYMCKLRPLLQKWVEEAD | -0.387 ± 0.5
EESQDIKALQKELEQFAKLLKQKRITLGYTQADVGLTLGVLFGKVFSQTTICRFEALQLSFKWMCKLRPLLQKWVEEAD | -0.832 ± 0.39
EESQDIKALQKELEQFAKLLKQKRITLGYTQADVGLTLGVLFGKVFSQTTICRFEALQLSFKNPCKLRPLLQKWVEEAD | -0.604 ± 0.27
EESQDIKALQKELEQFAKLLKQKRITLGYTQADVGLTLGVLFGKVFSQTTICRFEALQLSFKNLCKLRPLLQKWVEEAD | -0.333 ± 0.11
EESQDIKALQKELEQFAKLLKQKRITLGYTQADVGLTLGVLFGKVFSQTTICRFEALQLSFKNTCKLRPLLQKWVEEAD | -0.496 ± 0.14
EESQDIKALQKELEQFAKLLKQKRITLGYTQADVGLTLGVLFGKVFSQTTICRFEALQLSFKNRCKLRPLLQKWVEEAD | -0.871 ± 0.15
EESQDIKALQKELEQFAKLLKQKRITLGYTQADVGLTLGVLFGKVFSQTTICRFEALQLSFKNECKLRPLLQKWVEEAD | -0.763 ± 0.23
EESQDIKALQKELEQFAKLLKQKRITLGYTQADVGLTLGVLFGKVFSQTTICRFEALQLSFKNNCKLRPLLQKWVEEAD | -0.608 ± 0.23

Variant | abundance fitness
EESQDIKALQKELEQFAKLLKQKRITLGYTQADVGLTLGVLFGKVFSQTTICRFEALQLSFKNCCKLRPLLQKWVEEAD | -0.739 ± 0.33
EESQDIKALQKELEQFAKLLKQKRITLGYTQADVGLTLGVLFGKVFSQTTICRFEALQLSFKNACKLRPLLQKWVEEAD | -0.251 ± 0.11
EESQDIKALQKELEQFAKLLKQKRITLGYTQADVGLTLGVLFGKVFSQTTICRFEALQLSFKNVCKLRPLLQKWVEEAD | -0.675 ± 0.15
EESQDIKALQKELEQFAKLLKQKRITLGYTQADVGLTLGVLFGKVFSQTTICRFEALQLSFKNFCKLRPLLQKWVEEAD | -0.8 ± 0.47
EESQDIKALQKELEQFAKLLKQKRITLGYTQADVGLTLGVLFGKVFSQTTICRFEALQLSFKNYCKLRPLLQKWVEEAD | -1.06 ± 0.5
EESQDIKALQKELEQFAKLLKQKRITLGYTQADVGLTLGVLFGKVFSQTTICRFEALQLSFKNWCKLRPLLQKWVEEAD | -0.667 ± 0.22
EESQDIKALQKELEQFAKLLKQKRITLGYTQADVGLTLGVLFGKVFSQTTICRFEALQLSFKNQCKLRPLLQKWVEEAD | -0.802 ± 0.23
EESQDIKALQKELEQFAKLLKQKRITLGYTQADVGLTLGVLFGKVFSQTTICRFEALQLSFKNGCKLRPLLQKWVEEAD | -0.621 ± 0.12
EESQDIKALQKELEQFAKLLKQKRITLGYTQADVGLTLGVLFGKVFSQTTICRFEALQLSFKNDCKLRPLLQKWVEEAD | -0.816 ± 0.32
EESQDIKALQKELEQFAKLLKQKRITLGYTQADVGLTLGVLFGKVFSQTTICRFEALQLSFKNKCKLRPLLQKWVEEAD | -0.279 ± 0.13
EESQDIKALQKELEQFAKLLKQKRITLGYTQADVGLTLGVLFGKVFSQTTICRFEALQLSFKNMCKLRALLQKWVEEAD | -0.252 ± 0.12
EESQDIKALQKELEQFAKLLKQKRITLGYTQADVGLTLGVLFGKVFSQTTICRFEALQLSFKNMCKERPLLQKWVEEAD | -0.289 ± 0.17
EESQDIKALQKELEQFAKLLKQKRITLGYTQADVGLTLGVLFGKVFSQTTICRFEALQLSFKNMCKMRPLLQKWVEEAD | -0.052 ± 0.16
EESQDIKALQKELEQFAKLLKQKRITLGYTQADVGLTLGVLFGKVFSQTTICRFEALQLSFKNMCKARPLLQKWVEEAD | -0.612 ± 0.16
EESQDIKALQKELEQFAKLLKQKRITLGYTQADVGLTLGVLFGKVFSQTTICRFEALQLSFKNMCKWRPLLQKWVEEAD | -0.851 ± 0.26
EESQDIKALQKELEQFAKLLKQKRITLGYTQADVGLTLGVLFGKVFSQTTICRFEALQLSFKNMCKRRPLLQKWVEEAD | -0.575 ± 0.12
EESQDIKALQKELEQFAKLLKQKRITLGYTQADVGLTLGVLFGKVFSQTTICRFEALQLSFKNMCKSRPLLQKWVEEAD | -0.608 ± 0.22
EESQDIKALQKELEQFAKLLKQKRITLGYTQADVGLTLGVLFGKVFSQTTICRFEALQLSFKNMCKTRPLLQKWVEEAD | -0.494 ± 0.29
EESQDIKALQKELEQFAKLLKQKRITLGYTQADVGLTLGVLFGKVFSQTTICRFEALQLSFKNMCKQRPLLQKWVEEAD | -0.756 ± 0.39
EESQDIKALQKELEQFAKLLKQKRITLGYTQADVGLTLGVLFGKVFSQTTICRFEALQLSFKNMCKCRPLLQKWVEEAD | -0.363 ± 0.27
EESQDIKALQKELEQFAKLLKQKRITLGYTQADVGLTLGVLFGKVFSQTTICRFEALQLSFKNMCKNRPLLQKWVEEAD | 0.553 ± 0.28
EESQDIKALQKELEQFAKLLKQKRITLGYTQADVGLTLGVLFGKVFSQTTICRFEALQLSFKNMCPLRPLLQKWVEEAD | -0.51 ± 0.27
EESQDIKALQKELEQFAKLLKQKRITLGYTQADVGLTLGVLFGKVFSQTTICRFEALQLSFKNMCGLRPLLQKWVEEAD | -0.185 ± 0.091

Variant | abundance fitness
EESQDIKALQKELEQFAKLLKQKRITLGYTQADVGLTLGVLFGKVFSQTTICRFEALQLSFKNMCSLRPLLQKWVEEAD | 0.003 ± 0.12
EESQDIKALQKELEQFAKLLKQKRITLGYTQADVGLTLGVLFGKVFSQTTICRFEALQLSFKNMCVLRPLLQKWVEEAD | -0.365 ± 0.15
EESQDIKALQKELEQFAKLLKQKRITLGYTQADVGLTLGVLFGKVFSQTTICRFEALQLSFKNMCFLRPLLQKWVEEAD | 0.04 ± 0.28
EESQDIKALQKELEQFAKLLKQKRITLGYTQADVGLTLGVLFGKVFSQTTICRFEALQLSFKNMCDLRPLLQKWVEEAD | -0.477 ± 0.3
EESQDIKALQKELEQFAKLLKQKRITLGYTQADVGLTLGVLFGKVFSQTTICRFEALQLSFKNMCMLRPLLQKWVEEAD | 0.113 ± 0.12
EESQDIKALQKELEQFAKLLKQKRITLGYTQADVGLTLGVLFGKVFSQTTICRFEALQLSFKNMCALRPLLQKWVEEAD | -0.011 ± 0.097
EESQDIKALQKELEQFAKLLKQKRITLGYTQADVGLTLGVLFGKVFSQTTICRFEALQLSFKNMCRLRPLLQKWVEEAD | -0.01 ± 0.093
EESQDIKALQKELEQFAKLLKQKRITLGYTQADVGLTLGVLFGKVFSQTTICRFEALQLSFKNMCQLRPLLQKWVEEAD | -0.051 ± 0.19
EESQDIKALQKELEQFAKLLKQKRITLGYTQADVGLTLGVLFGKVFSQTTICRFEALQLSFKNMCTLRPLLQKWVEEAD | -0.187 ± 0.16
EESQDIKALQKELEQFAKLLKQKRITLGYTQADVGLTLGVLFGKVFSQTTICRFEALQLSFKNMCNLRPLLQKWVEEAD | 0.209 ± 0.32
EESQDIKALQKELEQFAKLLKQKRITLGYTQADVGLTLGVLFGKVFSQTTICRFEALQLSFKNMCKLPPLLQKWVEEAD | -0.734 ± 0.33
EESQDIKALQKELEQFAKLLKQKRITLGYTQADVGLTLGVLFGKVFSQTTICRFEALQLSFKNMCKLGPLLQKWVEEAD | -0.797 ± 0.23
EESQDIKALQKELEQFAKLLKQKRITLGYTQADVGLTLGVLFGKVFSQTTICRFEALQLSFKNMCKLLPLLQKWVEEAD | -0.222 ± 0.1
EESQDIKALQKELEQFAKLLKQKRITLGYTQADVGLTLGVLFGKVFSQTTICRFEALQLSFKNMCKLKPLLQKWVEEAD | -0.154 ± 0.2
EESQDIKALQKELEQFAKLLKQKRITLGYTQADVGLTLGVLFGKVFSQTTICRFEALQLSFKNMCKLTPLLQKWVEEAD | -0.436 ± 0.19
EESQDIKALQKELEQFAKLLKQKRITLGYTQADVGLTLGVLFGKVFSQTTICRFEALQLSFKNMCKLSPLLQKWVEEAD | -0.535 ± 0.25
EESQDIKALQKELEQFAKLLKQKRITLGYTQADVGLTLGVLFGKVFSQTTICRFEALQLSFKNMCKLEPLLQKWVEEAD | -0.421 ± 0.26
EESQDIKALQKELEQFAKLLKQKRITLGYTQADVGLTLGVLFGKVFSQTTICRFEALQLSFKNMCKLWPLLQKWVEEAD | 0 ± 0.11
EESQDIKALQKELEQFAKLLKQKRITLGYTQADVGLTLGVLFGKVFSQTTICRFEALQLSFKNMCKLVPLLQKWVEEAD | -0.609 ± 0.18
EESQDIKALQKELEQFAKLLKQKRITLGYTQADVGLTLGVLFGKVFSQTTICRFEALQLSFKNMCKLDPLLQKWVEEAD | -0.621 ± 0.4
EESQDIKALQKELEQFAKLLKQKRITLGYTQADVGLTLGVLFGKVFSQTTICRFEALQLSFKNMCKLAPLLQKWVEEAD | -0.265 ± 0.14
EESQDIKALQKELEQFAKLLKQKRITLGYTQADVGLTLGVLFGKVFSQTTICRFEALQLSFKNMCKLYPLLQKWVEEAD | 0.356 ± 0.19
EESQDIKALQKELEQFAKLLKQKRITLGYTQADVGLTLGVLFGKVFSQTTICRFEALQLSFKNMCKLQPLLQKWVEEAD | -0.384 ± 0.16
